Target: synthetic peptide representing residues 620-635 of the BDBV GP2 stalk epitope (Bundibugyo virus)
Test: crystal structure
Details: both partners purified

B1: BDBV223 Fab (Fab, V domains shown)
VH: QVQLQQWGAGLLKPSETLSLTCAVYGGSFTTTYWNWIRQPPGKGLEWIGEVNYSGNANYNPSLKGRVAISVDTSKNQFSLRLNSVTAADTAIYYCTSRIRSHIAYSWKGDVWGKGTTVTVSS
VL: EIVMTQSPGTLSLSPGERATLSCRASQSVPRNYIGWFQQKPGQAPRLLIYGASSRAAGFPDRFSGSGSGTDFTLTITRLEPEDFAMYYCHQYDRLPYTFGQGTKLEIK
B1: binds.
